Values joined by “and” are separate entries in the source; they are usually repeats but may differ in a detail not shown here. Equal values may be shown once.
T1: MS4A6A ECL1 peptide (human)
T1 construct: the description elsewhere gives ECL1 as 68-84; Human and cyno ECL1 are said to be identical
T1 peptide: SASFSPNFTQVTSTLLNS

T2: MS4A6A ECL2 peptide (human)
T2 construct: also called MS4A6A ECL-2 peptides
T2 peptide: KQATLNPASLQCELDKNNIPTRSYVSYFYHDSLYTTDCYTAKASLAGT

T3: cynomolgus (cyno) MS4A6A (cynomolgus, UniProt Q9H2W1 1-246 (human entry))
T3 construct: Full-length protein expressed in transfected HEK293, U937 or K562 cells (flow cytometry)
T3 chain: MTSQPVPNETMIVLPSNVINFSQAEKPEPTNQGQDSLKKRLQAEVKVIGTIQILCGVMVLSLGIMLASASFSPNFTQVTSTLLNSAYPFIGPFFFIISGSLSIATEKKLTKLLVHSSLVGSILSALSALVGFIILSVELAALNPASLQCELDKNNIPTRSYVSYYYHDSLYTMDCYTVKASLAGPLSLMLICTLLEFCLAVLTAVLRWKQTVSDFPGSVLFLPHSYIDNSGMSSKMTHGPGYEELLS


Experiments:
MS4A6A ECL1 peptide = target: T1, MS4A6A ECL1 peptide; assay: peptide ELISA, hybridoma supernatant
Protocol: Anti-MS4A6A hybridoma supernatants were tested for binding to MS4A6A peptides derived from ECL1 (amino acid residues 68-85 of human MS4A6A of SEQ ID NO:1) and ECL2 (amino acid residues 138-185 of human MS4A6A of SEQ ID NO:1) sequences, using an enzyme-linked immunosorbent assay (ELISA). Briefly, 96-well polystyrene plates were coated with 1-10 μg/mL of synthetic free or BSA-conjugated peptides in coating buffer (0.05M carbonate buffer, pH9.6, Millipore Sigma C3041) overnight at 4° C. Coated plates were then blocked with ELISA diluent (PBS+0.5% BSA+0.05% Tween20) for 1-hour, washed 3×300 μL in PBST (PBS+0.05% Tween20, Thermo 28352), and then the antibodies were added at various dilutions (100-1000×) in ELISA diluent. After 30 mins incubation (room temperature, with shaking), the plates were washed 3×300 μl in PBST. A secondary anti-mouse HRP antibody (Jackson Immunoresearch CAT #115-035-003) was added at a 1:1000 dilution in ELISA diluent (50 μL/well) and incubated for 30 minutes at room temperature with shaking. After a final set of washes (3×300 μl in PBST), 50 μL of TMB substrate (BioFx TMBW-1000-01) was added and the reaction was then quenched after 5-10 mins with 50 μL of stop solution (BioFx BSTP-1000-01). The quenched reaction wells were detected for absorbance at […] with a BioTek Synergy Microplate Reader using GENS 2.04 software.

MS4A6A ECL2 peptide = target: T2, MS4A6A ECL2 peptide; assay: array SPR (Carterra MX-96), antibody captured on anti-mouse IgG-Fc, ECL2 peptide injected
Protocol: Binding kinetic characterization of the purified antibodies to MS4A6A ECL1 and ECL2 peptides was performed by Carterra (South San Francisco, Calif.) using a proprietary array Surface Plasmon Resonance (SPR) instrument (MX-96) as follows. Antibodies were printed onto a CMD5OOD chip (Xantec #SPMX CMD500D lot #SC CMD500D0117.a Exp. 31.12.18) using the Continuous Flow Microspotter (CFM). First, the chip was activated with 100 mM MES pH 5.5, 100 μL EDC (133 mM final), 100 μL of S-NHS (33.3 mM final), for 7 minutes. A lawn of anti-mouse IgG-Fc (Jackson ImmunoResearch CAT #115-005-071 lot#130410) was injected for 15 minutes to establish a surface density of 10000-12000 RU, after which the chip surface was deactivated with 1 M ethanolamine at pH 8.5 for 10 minutes. Anti-MS4A6A antibodies in question, in the form of hybridoma supernatants diluted 2:1 with HBS-EP+buffer (Teknova CAT #H8022), were then printed as duplicates with a 20 minute and a 5 minutes print from the same sample solution. Control antibodies were diluted to 20 μ/ml for printing.
To perform kinetic analysis, the peptides in question were prepared in HBS-EP+buffer with lmg/ml BSA at final assay concentrations of 2000 nM, 400 nM, 80 nM, 16 nmM, and 3.2 nM. These were then injected on the chip for five minutes, followed by a seven-minute dissociation period at 8 uL per second in a non-regenerative kinetic series. Duplicate measurements for each anti-MS4A6A antibody were taken to ensure reproducibility.
Kₐ (association rate constant; Kₒₙ), Kd (dissociation rate constant; Koff) and KD (equilibrium constant) to MS4A6A ECL-2 peptides were calculated for each of the 23 anti-MS4A6A antibodies tested, the results of which are shown below in Table 5 (clones that bound too weakly to determine these values are denoted as N/A in Table 5).

cynomolgus (cyno) MS4A6A [1] = target: T3, cynomolgus (cyno) MS4A6A; assay: flow cytometry, hybridoma supernatant, HEK293 transfected with cyno MS4A6A over parental HEK293; Screen 1
Protocol: (§1) Positive clones were expanded and then rescreened for specificity against HEK293 cells overexpressing cyno MS4A6A and parental HEK293 cells. Briefly, previously prepared, cryopreserved transiently-transfected cells were labeled with LIVE/DEAD Fixable Aqua Dead Cell Stain Kit (ThermoFisher Scientific L34957) on ice for 30 minutes. After a wash with PBS, 2×10⁵ cells were aliquoted per well in 96-well round bottom plates and incubated with 50 μl of culture supernatant on ice for 30 mins. […] Following this secondary incubation, the cells were again washed twice with ice-cold FACS buffer and resuspended in a final volume of 200 μl of FACS buffer. Analysis was performed on a FACS Canto system (BD Biosciences), with sort gates drawn to exclude dead (Aqua-positive) cells. […] The screen was repeated twice, and the numbers reported here represent the ratio of mean fluorescence level in transfected cells over parental cells.

cynomolgus (cyno) MS4A6A [2] = target: T3, cynomolgus (cyno) MS4A6A; assay: flow cytometry, hybridoma supernatant, HEK293 transfected with cyno MS4A6A over parental HEK293; Screen 2
Protocol: as §1

Binder | binding result (MS4A6A ECL1 peptide) | Kd (MS4A6A ECL2 peptide) | koff (MS4A6A ECL2 peptide) | kon (MS4A6A ECL2 peptide) | ratio of APC MFI on MS4A6A+/HEK parental cells (cynomolgus (cyno) MS4A6A [1]) [ratio] | ratio of APC MFI on MS4A6A+/HEK parental cells (cynomolgus (cyno) MS4A6A [2]) [ratio]
6A-11 (antibody, V domains shown, Mouse hybridoma antibody, tested as hybridoma supernatant (mouse IgG, detected or captured via anti-mouse IgG Fc); also called anti-MS4A6A antibody 6A-11) VH: EVQLQQSGPDLVKPGASVKISCKASGYSFTGYYIHWVKQSHIKSLEWIGRINPNNGATNYNQIFKDKATLTVDRSSSTAYMDLHSLTSEDSAVYYCVSTFITGWGQGTTLTVSS VL: DVLLTQTPLSLPVSLGDQASISCRSSQTIVHSDGNTYLEWYLQRPGLSPKLLIYKVSIRFSGVPDRFSGSGSGTDFTLKISRVEAEDLGVYYCFQGSHVPWTFGGGTKLEIK | no binding | – | – | – | 8.6 | 61.7
6A-9 (antibody, V domains shown, Mouse hybridoma antibody, tested as hybridoma supernatant (mouse IgG, detected or captured via anti-mouse IgG Fc); also called anti-MS4A6A antibody 6A-9) VH: EVQLQQSGPELVKPGASVKISCKASGYSFTGYYIHWVKESHVKSLEWIGRINPKNGVTSYNQNFKDKASLTVDRSSSTAYMDLYSLTSEDSAVYYCASTFITGWGQGTSLTVSS VL: DVLLTQAPLSLPVSLGDQASISCRSSQTIVHSDGNTYLEWYLQKPGQSPKLLIYTVSNRFSGVPDRFSGSGSGTDFTLKISRVEAEDLGVYYCFQGSHVPWTFGGGTKLEIK | no binding | 290 nM | 0.0011 s⁻¹ | 3900 M⁻¹ s⁻¹ | 12.6 | 84
6A-18 (antibody, V domains shown, Mouse hybridoma antibody, tested as hybridoma supernatant (mouse IgG, detected or captured via anti-mouse IgG Fc); also called anti-MS4A6A antibody 6A-18) VH: EVQLQQSGPELVKPGASVKISCKASGYSFTGYYIHWVKESHVKSLEWIGRINPKNGVTSYNQNFKDKASLTVDRSSSTAYMDLYSLTSEDSAVYYCASTFITGWGQGTSLTVSS VL: DVLLTQAPLSLPVSLGDQASISCRSSQTIVHSDGNTYLEWYLQKPGQSPKLLIYTVSNRFSGVPDRFSGSGSGTDFTLKISRVEAEDLGVYYCFQGSHVPWTFGGGTKLEIK | no binding | 180 nM | 0.00049 s⁻¹ | 2700 M⁻¹ s⁻¹ | 4.1 | 20.3
6A-16 (antibody, V domains shown, Mouse hybridoma antibody, tested as hybridoma supernatant (mouse IgG, detected or captured via anti-mouse IgG Fc); also called anti-MS4A6A antibody 6A-16) VH: EVQLQQSGPELVKPGASVKISCKASGYSFTGYYIHWVKESHVKSLEWIGRINPKNGVTSYNQNFKDKASLTVDRSSSTAYMDLYSLTSEDSAVYYCASTFITGWGQGTTVTVSS VL: DVLLTQAPLSLPVSLGDQASISCRSSQTIVHSDGNTYLEWYLQKPGQSPKLLIYTVSNRFSGVPDRFSGSGSGTDFTLKISRVEAEDLGVYYCFQGSHVPWTFGGGTKLEIK | no binding | 180 nM and 150 nM | 0.00097 s⁻¹ and 0.00049 s⁻¹ | 5500 M⁻¹ s⁻¹ and 3400 M⁻¹ s⁻¹ | 14.4 | 28.5
6A-13 (antibody, V domains shown, Mouse hybridoma antibody, tested as hybridoma supernatant (mouse IgG, detected or captured via anti-mouse IgG Fc); also called anti-MS4A6A antibody 6A-13) VH: EVKVVESGGGLVQPGGSLRLSCATAGFTFTDYYMTWVRQPPGKALEWLGFIRNKANGYTTEYNSSVKGRFTISRDNSRSILYLQMNTLRAEDSATYYCARSMDYWGQGTSVTVSS VL: NIVMTQSPNSMSMSVGERVTLSCKASENVGTYVSWYQQKPDQSPKLLIYGASNRYTGVPDRFTGGGSATDFTLTISSVQAEDLADYHCGQTYSFPYTFGGGTKLEIK | no binding | 140 nM and 180 nM | 0.00066 s⁻¹ and 0.00092 s⁻¹ | 4800 M⁻¹ s⁻¹ and 5300 M⁻¹ s⁻¹ | 24.8 | 30.3

More lines, now with the values ahead:

binding result (MS4A6A ECL1 peptide) | Kd (MS4A6A ECL2 peptide) | koff (MS4A6A ECL2 peptide) | kon (MS4A6A ECL2 peptide) | ratio of APC MFI on MS4A6A+/HEK parental cells (cynomolgus (cyno) MS4A6A [1]) [ratio] | ratio of APC MFI on MS4A6A+/HEK parental cells (cynomolgus (cyno) MS4A6A [2]) [ratio] | Binder
no binding | 160 nM and 130 nM | 0.00081 s⁻¹ and 0.00067 s⁻¹ | 5200 M⁻¹ s⁻¹ and 5100 M⁻¹ s⁻¹ | 40.3 | 45.5 | 6A-12 (antibody, V domains shown, Mouse hybridoma antibody, tested as hybridoma supernatant (mouse IgG, detected or captured via anti-mouse IgG Fc); also called anti-MS4A6A antibody 6A-12) VH: EVQLQQSGPELVKPGASVKISCKASGYSFTGYYMHWVKQSPEDSLEWIGAINPSTGGSTYSQKFKDKATLTVDKSSSTAYMQLKSLTSEESAVYYCTRFDGYGYWGQGTLVTVSS VL: DIVMTQAAFSNPVTLGTSASISCRSSKSLLHSNGITYLYWYLQKPGQSLQLLIYQMSNLASGVPDRFSGSGSGTDFTLRISRVEAEDVGVYYCAQNLELPWTFGGGTKLEIK
no binding | 200 nM | 0.001 s⁻¹ | 5300 M⁻¹ s⁻¹ | 71.8 | 136 | 6A-21 (antibody, V domains shown, Mouse hybridoma antibody, tested as hybridoma supernatant (mouse IgG, detected or captured via anti-mouse IgG Fc); also called anti-MS4A6A antibody 6A-21) VH: EVQLQQSGPELVKPGASVKMSCKASGYTFTDYFMKWVKQSHGKSLEWIGDINPKNGDTFYNQKFKGKATLTVDKSSSTAYMQLNSLTSEDSAVYYCARPGYFDVWGAGTTVTVSS VL: not shown
no binding | 170 nM and 150 nM | 0.00096 s⁻¹ and 0.001 s⁻¹ | 5700 M⁻¹ s⁻¹ and 6900 M⁻¹ s⁻¹ | 20.2 | 59.1 | 6A-14 (antibody, V domains shown, Mouse hybridoma antibody, tested as hybridoma supernatant (mouse IgG, detected or captured via anti-mouse IgG Fc); also called anti-MS4A6A antibody 6A-14) VH: QVQLKQSGPGLVQPSQSLSITCTVSGFSLTTYGVHWVRQSPGKGLEWLGVIWSGGSTDYNAAFISRLNISKDNSKSQVFFKMNSLQANDTAIYYCARGYGSSYEYFDVWGAGTTVTVSS VL: DIVLTQSPASLAVSLGQRATISCRASESVDSYGNSFMHWYQQKPGQPPKLLIYRASNLESGIPARFSGSGSRTDFTLTINPVEADDVATYYCQQSNEDPLTFGAGTKLELK
no binding | 390 nM and 250 nM | 0.0023 s⁻¹ and 0.0021 s⁻¹ | 6000 M⁻¹ s⁻¹ and 8400 M⁻¹ s⁻¹ | 175 | 68.8 | 6A-22 (antibody, V domains shown, Mouse hybridoma antibody, tested as hybridoma supernatant (mouse IgG, detected or captured via anti-mouse IgG Fc); also called anti-MS4A6A antibody 6A-22) VH: EVNLEESGGDLVQPGGSMKLSCLASGFTFSDAWMDWVRQSPEKGLEWVAEIKNKANNYVTFYAASVKGRFTISRDDSKSSVYLQMNNLRPEDTGIYFCTRGSVYGNWFPYWGQGTLVTVSA VL: DIVMSQSPSSLAVSAGEKVTMTCKSSQSLFNSRTRKNYLTWYQQKPGQSPKVLIYWASTRESGVPDRFTGSGSGTDFSLTISSVQADDLAVYYCKQSYNLLTFGAGTRLELK
no binding | 76 nM and 86 nM | 0.00038 s⁻¹ and 0.00043 s⁻¹ | 5000 M⁻¹ s⁻¹ | 3.8 | 8.4 | 6A-15 (antibody, V domains shown, Mouse hybridoma antibody, tested as hybridoma supernatant (mouse IgG, detected or captured via anti-mouse IgG Fc); also called anti-MS4A6A antibody 6A-15) VH: EVMLVESGGGLVKPGGSLKLSCAASGFTFSSHAMSWVRQTPEKRLEWVATISSGDSYTYYPDSVKGRFTISRDNAKNTLYLQMTSLRSEDTAMYYCIRHIYYGNLYYAMDYWGQGTSVTVSS VL: DVLMTQTPLSLPVSLGDQASISCRSSQSIIHNNGNTYLEWYLQKPGQSPKLLIYKVSNRFSGVPDRFSGSGSGTYFTLKISRVEADDLGVYYCFQGSHVPWTFGGGTKLEIK

Reference: patent publication US20220380455A1 (Alector, published 2022)
